Results from patent publication US20180057888A1 (University of Texas, published 2018).

Molecular target: RNA Polymerase II (RNAPII), phospho-Ser2 C-terminal domain (pS2-CTD) (UniProt P24928 1-1970)
Assay: co-immunoprecipitation with anti-c-myc antibody, Western blot for RNAPII
Description: Whole-cell lysates and nuclear extracts were prepared as previously described (Morales et al., 2014). See Supplementary Table S2 for a list of specific antibodies and dilutions used. Protein concentrations were determined by BCA Assay following manufacturer's instructions (Thermo Scientific). Normalized protein samples were separated on denaturing gradient gels (4-20% from BioRad) and were transferred to PVDF membranes for immunoblotting. After transfer, the membranes were first blocked with 1× Sigma Blocking Buffer for an hour at room temperature. The membranes were then incubated with the indicated primary antibodies diluted in 1× Sigma Blocking Buffer at 4° C. overnight. After this step, the membranes were washed with PBST (3×, 10 minutes each). HRP-conjugated secondary antibodies were diluted in 1× Sigma Blocking Buffer and incubated with the membranes at room temperature for 1 hr. […]
Log phase cells were plated in 10-cm dishes, and incubated after transfection with either empty pCMV-myc vector, myc-tagged wild-type K-H or myc-tagged mutant K-H (R106A) constructs for 48 hr using Lipofectamine 2000. […] Co-immunoprecipitated proteins (e.g., RNAPII) were analyzed by Western blot as previously described.

B1: myc-tagged mutant K-H (R106A) (other)
chain: MSSFSESALEKKLSELSNSQQSVQTLSLWLIHHRKHAGPIVSVWHRELRKAKSNRKLTFLYLANDVIQNSKRKGPEFTREFESVLVDAFSHVAREADEGCKKPLEALLNIWQERSVYGGEFIQQLKLSMEDSKSPPPKATEEKKSLKRTFQQIQEEEDDDYPGSYSPQDPSAGPLLTEELIKALQDLENAASGDATVRQKIASLPQEVQDVSLLEKITDKEAAERLSKTVDEACLLLAEYNGRLAAELEDRRQLARMLVEYTQNQKDVLSEKEKKLEEYKQKLARVTQVRKELKSHIQSLPDLSLLPNVTGGLAPLPSAGDLFSTD
notes: Expressed from a transfected myc-tagged construct and immunoprecipitated with anti-c-myc antibody; also called R106A mutant K-H; mutant R106A K-H; not shown: myc tag from the pCMV-myc vector
B1: no binding.
